Measurements reported in patent US20260008830A1.
Blank lines part the entries; values can stand above or below the substance they belong to.

Key:
Experiment in all cases: cell-based or functional assay
[1] = molecular target: IL-22 receptors R1 and R2 on HEK-Blue IL-22 reporter cells (UniProt Q8N6P7)
[2] = molecular target: T1, IL-10 receptors R1 and R2 on HEK-Blue IL-10 reporter cells (UniProt Q13651)
T1 sequence (looked up) 1: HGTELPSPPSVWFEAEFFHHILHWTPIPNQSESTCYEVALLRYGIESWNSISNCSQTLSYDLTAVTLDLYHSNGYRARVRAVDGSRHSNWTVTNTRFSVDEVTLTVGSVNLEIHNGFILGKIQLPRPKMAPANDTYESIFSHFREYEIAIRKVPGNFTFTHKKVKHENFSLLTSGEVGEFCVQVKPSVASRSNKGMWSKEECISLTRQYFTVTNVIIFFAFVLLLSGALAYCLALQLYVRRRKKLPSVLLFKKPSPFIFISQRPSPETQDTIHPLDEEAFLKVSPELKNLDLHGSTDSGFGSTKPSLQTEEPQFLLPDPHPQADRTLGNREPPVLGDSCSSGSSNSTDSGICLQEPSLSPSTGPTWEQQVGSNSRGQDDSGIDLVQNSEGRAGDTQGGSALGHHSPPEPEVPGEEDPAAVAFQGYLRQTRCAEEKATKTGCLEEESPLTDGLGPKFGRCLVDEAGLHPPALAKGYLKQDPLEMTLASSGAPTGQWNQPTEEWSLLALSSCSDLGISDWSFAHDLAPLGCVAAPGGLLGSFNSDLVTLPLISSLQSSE
T1 sequence (looked up) 2: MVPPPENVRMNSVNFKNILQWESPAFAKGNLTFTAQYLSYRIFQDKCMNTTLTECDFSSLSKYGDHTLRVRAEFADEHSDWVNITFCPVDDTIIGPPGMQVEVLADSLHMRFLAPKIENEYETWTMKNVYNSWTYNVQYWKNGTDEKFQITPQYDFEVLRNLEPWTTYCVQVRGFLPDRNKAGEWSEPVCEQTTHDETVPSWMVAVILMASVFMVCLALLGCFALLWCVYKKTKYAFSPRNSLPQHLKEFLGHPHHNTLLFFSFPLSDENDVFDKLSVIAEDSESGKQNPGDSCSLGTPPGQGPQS

[3] = molecular target: T2, IFN-gamma receptor on HEK-Dual cells (Human IFN-γ SEAP/Luciferase Reporter Cells, hkd-ifng)
T2 sequence (P15260 whole entry, looked up): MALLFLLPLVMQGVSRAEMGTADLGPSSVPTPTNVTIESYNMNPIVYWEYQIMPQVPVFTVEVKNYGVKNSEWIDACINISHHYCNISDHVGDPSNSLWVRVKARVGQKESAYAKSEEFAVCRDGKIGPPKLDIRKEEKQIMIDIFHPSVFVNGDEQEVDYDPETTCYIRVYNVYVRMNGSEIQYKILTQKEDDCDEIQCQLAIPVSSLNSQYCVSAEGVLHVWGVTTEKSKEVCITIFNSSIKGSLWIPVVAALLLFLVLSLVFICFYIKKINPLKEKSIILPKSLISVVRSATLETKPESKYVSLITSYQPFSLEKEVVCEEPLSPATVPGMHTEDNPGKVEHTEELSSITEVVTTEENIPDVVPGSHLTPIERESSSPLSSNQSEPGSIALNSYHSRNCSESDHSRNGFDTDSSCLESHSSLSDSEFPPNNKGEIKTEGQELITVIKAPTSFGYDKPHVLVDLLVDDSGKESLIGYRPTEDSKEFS
T2 sequence (P38484 whole entry, looked up): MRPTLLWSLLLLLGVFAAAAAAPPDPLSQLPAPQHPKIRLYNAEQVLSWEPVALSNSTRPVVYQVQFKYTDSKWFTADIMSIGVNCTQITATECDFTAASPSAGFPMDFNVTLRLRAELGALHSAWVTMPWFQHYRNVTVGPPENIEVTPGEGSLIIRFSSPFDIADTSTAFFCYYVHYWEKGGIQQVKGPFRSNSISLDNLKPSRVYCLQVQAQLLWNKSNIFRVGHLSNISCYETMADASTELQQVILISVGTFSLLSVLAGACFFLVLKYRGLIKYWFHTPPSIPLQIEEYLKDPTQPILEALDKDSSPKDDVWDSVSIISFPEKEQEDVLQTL

[4] = molecular target: IL-10 receptors R1 and R2 on HEK-Blue IL-10 reporter cells (UniProt Q13651); remark: listed apart in the source

Sequence of IL-10 ORF (WT human IL-10 expressed and secreted by M. pneumoniae) (P22301 other isoform, or with tags, fused parts or gaps limits assumed): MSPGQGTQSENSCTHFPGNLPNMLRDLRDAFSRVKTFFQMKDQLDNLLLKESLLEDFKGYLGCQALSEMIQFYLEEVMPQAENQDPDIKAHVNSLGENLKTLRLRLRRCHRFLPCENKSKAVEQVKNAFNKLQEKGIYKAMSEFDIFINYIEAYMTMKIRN
Sequence of IL-22 receptors R1 and R2 on HEK-Blue IL-22 reporter cells (Q8N6P7 16-574 limits assumed): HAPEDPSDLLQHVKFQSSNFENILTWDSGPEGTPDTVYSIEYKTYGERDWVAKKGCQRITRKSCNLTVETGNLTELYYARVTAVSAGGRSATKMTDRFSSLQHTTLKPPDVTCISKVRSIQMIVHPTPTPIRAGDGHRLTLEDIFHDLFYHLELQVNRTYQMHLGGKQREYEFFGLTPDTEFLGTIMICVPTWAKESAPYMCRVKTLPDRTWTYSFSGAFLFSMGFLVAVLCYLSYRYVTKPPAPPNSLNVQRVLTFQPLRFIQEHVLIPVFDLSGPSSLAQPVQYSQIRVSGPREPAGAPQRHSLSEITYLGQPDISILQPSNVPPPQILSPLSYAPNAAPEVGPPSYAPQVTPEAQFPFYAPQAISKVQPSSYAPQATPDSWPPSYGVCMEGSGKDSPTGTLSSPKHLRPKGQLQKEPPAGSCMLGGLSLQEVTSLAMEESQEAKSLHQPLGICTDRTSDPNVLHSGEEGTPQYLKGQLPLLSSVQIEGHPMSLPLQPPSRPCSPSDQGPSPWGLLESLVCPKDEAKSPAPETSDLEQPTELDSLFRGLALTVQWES
Sequence of IFNg WT (crystallised version of IFNg of PDB 6e3k) (P01579 other isoform, or with tags, fused parts or gaps limits assumed): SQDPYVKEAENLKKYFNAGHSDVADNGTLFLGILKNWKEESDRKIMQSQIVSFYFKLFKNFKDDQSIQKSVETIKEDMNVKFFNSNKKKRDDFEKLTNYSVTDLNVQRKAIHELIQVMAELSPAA

app KD (HEK-Blue IL-22 reporter) [1]: 0.128 nM
Substance: WT22 (IL-22 WT used as reference for the interface mutants) (from UniProt Q9GZX6 34-179) (ligand)

Apparent Kd (M) average (HEK-Blue IL-10 SEAP reporter, absorbance 630 nm, saturation binding fit) [2]: 1.98e-10 M
Fold change-apparentKD (against IL-10 ORF) [2]: 1 fold
Substance: IL-10 ORF (WT human IL-10 expressed and secreted by M. pneumoniae) (from UniProt P22301 19-178) (ligand)

EC50 (HEK Dual cells responding to IFNγ) [3]: 0.0866 nM
Substance: IFNg WT (crystallised version of IFNg of PDB 6e3k) (from UniProt P01579 24-147) (ligand)

Apparent Kd (M) average (HEK-Blue IL-10 SEAP reporter, absorbance 630 nm, saturation binding fit) [4]: 4.61e-10 M
Fold change-apparentKD (against IL-10 ORF) [4]: 0.43 fold
Substance: hIL-10r (commercial recombinant human IL-10, #200-10, Peprotech) (from UniProt P22301 19-178) (ligand)
